Measured values from publication PMC12557367, ““Precision on Two Wheels”–Structural Refinement of ^64Cu- and ^68Ga-Labeled Bicyclic Peptides Targeting Nectin‑4 for Improved Tumor Imaging: From Preclinical Development to First-in-Human Application” (Journal of Medicinal Chemistry, 2025).
Numbered stars: 1 amine (or outer) side, 2 acyl side, 3 side chain; on linkers, the order of the positions; unused ones are H or OH. Bridge positions count the residues as written; N and C are the ends. Square brackets hold non-standard residues; d marks the D form. * marks the point of attachment. 6‑TAMRA = CN(C)c1ccc2c(-c3cc(C(=O)*)ccc3C(=O)[O-])c3ccc(N(C)C)cc3[o+]c2c1; (R)‑NODAGA = O=C(O)CN1CCN(CC(=O)O)CCN([C@H](CCC(=O)*)C(=O)O)CC1; TATA = O=C(CC[*:1])N1CN(C(=O)CC[*:2])CN(C(=O)CC[*:3])C1; Mox = methoxinine, COCC[C@H](N[*:1])C(=O)[*:2]; 1Nal = N[C@@H](Cc1cccc2ccccc12)C(=O)O; Hyp = O=C(O)[C@@H]1C[C@@H](O)CN1; hArg = N=C(N)NCCCC[C@H](N)C(=O)O

T1: recombinant human nectin-4 (human, UniProt Q96NY8 32-349)
T1 construct: nectin-4, human, recombinant; also called complete extracellular domain of nectin-4; source: bought: R&D Systems (Catalog number 2659-N4)
T1 sequence (looked up): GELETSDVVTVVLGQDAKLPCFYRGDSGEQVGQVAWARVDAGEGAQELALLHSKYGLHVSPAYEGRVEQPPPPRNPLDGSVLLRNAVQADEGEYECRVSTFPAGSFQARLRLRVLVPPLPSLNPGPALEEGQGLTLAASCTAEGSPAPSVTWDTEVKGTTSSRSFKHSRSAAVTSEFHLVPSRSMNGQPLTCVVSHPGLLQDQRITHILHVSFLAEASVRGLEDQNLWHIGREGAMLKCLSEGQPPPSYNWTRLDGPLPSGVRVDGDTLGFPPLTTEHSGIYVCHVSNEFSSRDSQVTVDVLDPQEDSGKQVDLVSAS

T2: nectin-4 on intact HT-1376 cells (human (endogenous in HT-1376), UniProt Q96NY8 32-510)
T2 construct: also called cellular nectin-4
T2 sequence (looked up): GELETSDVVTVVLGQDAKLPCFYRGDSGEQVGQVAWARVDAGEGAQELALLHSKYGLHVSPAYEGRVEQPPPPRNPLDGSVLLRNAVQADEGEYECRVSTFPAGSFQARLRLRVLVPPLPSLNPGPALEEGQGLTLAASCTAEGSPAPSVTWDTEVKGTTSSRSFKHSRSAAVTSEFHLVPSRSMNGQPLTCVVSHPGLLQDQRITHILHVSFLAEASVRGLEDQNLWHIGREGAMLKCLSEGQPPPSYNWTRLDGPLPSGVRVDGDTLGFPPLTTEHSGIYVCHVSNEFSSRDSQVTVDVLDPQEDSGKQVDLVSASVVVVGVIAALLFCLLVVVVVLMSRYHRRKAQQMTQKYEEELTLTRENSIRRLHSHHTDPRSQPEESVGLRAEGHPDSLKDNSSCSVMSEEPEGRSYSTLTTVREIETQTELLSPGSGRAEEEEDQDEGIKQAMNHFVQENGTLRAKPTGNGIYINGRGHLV


Columns and labels:
[1] = molecular target: T1, recombinant human nectin-4; test: fluorescence polarisation; fluorescence anisotropy, direct binding: 1 nM fluorescent probe, 11 to 13 concentrations of nectin-4 (e.g. 0.06-250 nM), 37 °C, 1200 s, HEPES buffer 20 mM pH 7.4, 0.01% Tween20, NaCl, 1% DMSO; Morrison equation; details: both partners purified
[2] = molecular target: T3, recombinant N-terminal Ig-like V domain of nectin-4 (human); test: fluorescence polarisation; fluorescence anisotropy, direct binding of probe 1a to the N-terminal Ig-like V domain of nectin-4; same procedure as for nectin-4; details: both partners purified
T3 construct: nectin-4, N-terminal Ig-like V domain, recombinant; source: bought: Acro Biosystems (NE4-H82Ea)

[3] = molecular target: T2, nectin-4 on intact HT-1376 cells; test: radioligand binding; cellular efflux: release of [64Cu]Cu-4 from intact HT-1376 cells over 4 h at 37 °C after 1 h incubation at 10 nM; two-phase decay; details: one partner purified
[4] = molecular target: T2, nectin-4 on intact HT-1376 cells; test: radioligand binding; saturation binding on intact HT-1376 cells, 10 radioligand concentrations (0.156-80 or 0.321-160 nM), 37 °C, 1 h, PBS wash; nonspecific with 1 µM 1d; apparent (covers binding and putative internalisation); details: one partner purified

T3 sequence (Q96NY8 whole entry): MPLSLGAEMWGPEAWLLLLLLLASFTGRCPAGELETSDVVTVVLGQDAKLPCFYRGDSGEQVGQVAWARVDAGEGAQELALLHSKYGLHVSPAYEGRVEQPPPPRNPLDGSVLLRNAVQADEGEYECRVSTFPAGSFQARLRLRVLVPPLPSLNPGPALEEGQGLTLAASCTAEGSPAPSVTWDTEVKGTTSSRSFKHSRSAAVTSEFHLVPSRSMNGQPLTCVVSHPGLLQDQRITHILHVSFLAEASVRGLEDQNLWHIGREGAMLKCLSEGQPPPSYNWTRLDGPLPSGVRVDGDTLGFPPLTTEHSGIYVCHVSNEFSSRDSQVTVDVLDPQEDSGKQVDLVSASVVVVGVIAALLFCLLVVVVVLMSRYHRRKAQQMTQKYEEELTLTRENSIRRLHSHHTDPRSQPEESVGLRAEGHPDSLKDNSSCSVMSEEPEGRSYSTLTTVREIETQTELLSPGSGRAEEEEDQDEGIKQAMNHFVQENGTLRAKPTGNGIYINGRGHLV

Kd [1] | Kd [2] | half-life of the fast phase of cellular release [3] | Kd [4] | Binder
0.94 ± 0.09 nM | 1.3 nM |  |  | {6‑TAMRA}-CP[1Nal][dD]CM[hArg]DWSTP[Hyp]WC-NH2 (linker 1-5-15 via TATA) [1a]
 |  | 9.5 min | 6.06 nM | {(R)‑NODAGA}-CP[1Nal][dD]C[Mox][hArg]DWSTP[Hyp]WC-NH2 (linker 1-5-15 via TATA; also: NODAGA complexed with 64Cu) [[64Cu]Cu-4]
